Source: paper PMC10516938, “Conformational dynamics of cohesin/Scc2 loading complex are regulated by Smc3 acetylation and ATP binding” (Nature Communications, 2023)

Molecular target: T1, Smc3^QQ Q67C (S. cerevisiae, UniProt P47037 1-1230, Q67C | K112Q | K113Q)
T1 construct: Smc3, S. cerevisiae; source: S. cerevisiae W303, late G1 arrested cells, whole-cell extract
T1 sequence (looked up): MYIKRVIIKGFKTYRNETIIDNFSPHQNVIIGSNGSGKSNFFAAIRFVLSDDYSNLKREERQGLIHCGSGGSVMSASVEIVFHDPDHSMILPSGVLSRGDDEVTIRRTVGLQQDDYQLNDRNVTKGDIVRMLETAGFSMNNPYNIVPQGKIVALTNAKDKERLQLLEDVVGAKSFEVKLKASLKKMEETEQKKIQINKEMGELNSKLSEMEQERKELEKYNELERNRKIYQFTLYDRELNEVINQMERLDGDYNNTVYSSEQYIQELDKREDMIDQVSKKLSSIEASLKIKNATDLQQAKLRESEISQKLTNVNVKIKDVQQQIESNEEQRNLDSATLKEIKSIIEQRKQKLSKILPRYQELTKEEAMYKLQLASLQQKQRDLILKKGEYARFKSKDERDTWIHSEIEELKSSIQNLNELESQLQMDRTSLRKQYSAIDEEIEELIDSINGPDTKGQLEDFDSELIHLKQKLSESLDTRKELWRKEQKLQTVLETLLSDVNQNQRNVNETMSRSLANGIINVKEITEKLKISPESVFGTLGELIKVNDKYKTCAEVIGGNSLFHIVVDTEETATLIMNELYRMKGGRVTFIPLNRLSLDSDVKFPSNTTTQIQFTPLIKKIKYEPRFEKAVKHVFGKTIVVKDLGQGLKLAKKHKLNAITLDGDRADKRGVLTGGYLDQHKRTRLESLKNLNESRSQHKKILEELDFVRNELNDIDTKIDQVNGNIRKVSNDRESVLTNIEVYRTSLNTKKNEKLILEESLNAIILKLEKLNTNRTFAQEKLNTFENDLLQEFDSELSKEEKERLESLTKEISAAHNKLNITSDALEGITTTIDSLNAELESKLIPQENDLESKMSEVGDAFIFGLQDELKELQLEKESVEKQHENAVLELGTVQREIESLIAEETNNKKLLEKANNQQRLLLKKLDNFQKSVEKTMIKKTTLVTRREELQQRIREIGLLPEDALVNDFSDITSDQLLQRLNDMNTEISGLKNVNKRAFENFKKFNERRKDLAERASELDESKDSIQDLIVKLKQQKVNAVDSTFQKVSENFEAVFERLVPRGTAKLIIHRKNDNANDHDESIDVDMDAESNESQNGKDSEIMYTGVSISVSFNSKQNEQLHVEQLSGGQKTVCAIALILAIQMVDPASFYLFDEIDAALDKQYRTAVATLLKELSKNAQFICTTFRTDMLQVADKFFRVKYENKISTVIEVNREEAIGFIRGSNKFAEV
Assay: cross-linking; in vivo BMOE cross-link of cysteine pairs in yeast cells arrested in late G1 by non-degradable Sic1(9m); Scc1-PK immunoprecipitated, western blot, band intensities quantified
Conditions: partners not purified

B1: Scc2 T1175C (natural protein, S. cerevisiae, UniProt Q04002 1-1493, looked up)
chain: MSYPGKDKNIPGRIIEALEDLPLSYLVPKDGLAALVNAPMRVSLPFDKTIFTSADDGRDVNINVLGTANSTTSSIKNEAEKERLVFKRPSNFTSSANSVDYVPTNFLEGLSPLAQSVLSTHKGLNDSINIEKKSEIVSRPEAKHKLESVTSNAGNLSFNDNSSNKKTKTSTGVTMTQANLAEQYLNDLKNILDIVGFDQNSAEIGNIEYWLQLPNKKFVLTTNCLTKLQMTIKNITDNPQLSNSIEITWLLRLLDVMVCNIKFSKSSLKMGLDDSMLRYIALLSTIVLFNIFLLGKNDSNLHRESYIMEPVNFLSDLIESLKILTIEYGSLKIEFDTFQEALELLPKYIRNGPFLDDNVTAKLVYIFSDLLMNNDIEATTNIQFQSFWDNVKRISSDILVSLFGSFDQQRGFIIEELLSHIEKLPTKRIQKKLRKVGNQNIYITDFTFTLMSMLENINCYSFCNQMKDIAPENIDLLKNEYKKQEEFLFNIVEHINDTILERFFKNPSALRYVIDNFVQDLLLLISSPQWPVTEKILSSLLKRLLSVYSPSMQVSANIETICLQLIGNIGSTIFDIKCSTRDHEDNNLIKMINYPETLPHFFKSFEECIAYNETIKCRRSATRFLWNLRLGTILILEEYTKDAKEQIITVDNELKKILEQIKDGGLGPELENREADFSTIKLDYFSILHAFELLNLYDPYLKLILSLLAKDKIKLRSTAIKCLSMLASKDKVILSNPMVKETIHRRLNDSSASVKDAILDLVSINSSYFEFYQQINNNYNDDSIMVRKHVLRINEKMYDETNDIVTKVYVIARILMKIEDEEDNIIDMARLILLNRWILKVHEVLDQPEKLKEISSSVLLVMSRVAIMNEKCSQLFDLFLNFYLLNKEAHSKEAYDKITHVLTILTDFLVQKIVELNSDDTNEKNSIVDKQNFLNLLAKFADSTVSFLTKDHITALYPYMVSDEKSDFHYYILQVFRCTFEKLANFKQKFLYDLETTLLSRLPKMNVREIDEAMPLIWSVATHRHDTARVAKACSSCLSHLHPYINKANNEEAAIVVDGKLQRLIYLSTGFARFCFPKPSNDKIAFLQEGETLYEHITKCLLVLSKDKITHVIRRVAVKNLTKLCGNHPKLFNSRHVLHLLDKEFQSDQLDIKLVILESLYDLFLLEERKSVRNCGVNSTLSSNSILKKKLLKTNRVEFANDGVCSALATRFLDNILQLCLLRDLKNSLVAIRLLKLILKFGYTNPSHSIPTVIALFASTSQYIRHVAYELLEDLFEKYETLVFSSLSRGVTKAIHYSIHTDEKYYYKHDHFLSLLEKLCGTGKKNGPKFFKVLKRIMQSYLDDITDLTSTNSSVQKSIFVLCTNISNITFVSQYDLVSLLKTIDLTTDRLKEVIMDEIGDNVSSLSVSEEKLSGIILIQLSLQDLGTYLLHLYGLRDDVLLLDIVEESELKNKQLPAKKPDISKFSAQLENIEQYSSNGKLLTYFRKHVKDT
notes: Scc2, S. cerevisiae; source: S. cerevisiae W303, in vivo, whole-cell extract
  crosslink relative to wild-type Smc3: ~10%
